From patent US20250221923A1, “BOOSTING OSMOTIC BLOOD-ORGAN BARRIER OPENING FOR IMPROVED DELIVERY OF THERAPEUTICS TO ORGANS” (priority 2024, published 2025) come the findings set out here.

The test system of one data set is head and neck region. Set-up: species or system mice. Conditions: mouse, in vivo. The method, then:
Radiolabeled bevacizumab (Zr 89-bevacizumab) was administered via both IA and IV routes. […] Ex vivo measurements of drug biodistribution across various organs further corroborated these findings, quantifying radioactivity in specific tissues such as the skin, salivary glands, tongue, and jaw muscle (FIG. 7e). The method comprised pretreatment with composition comprising a hyperosmotic agent, stopping the pretreatment administration, and then administrating the radiolabeled bevacizumab. Without being bound by theory, it is believed that to enhance drug delivery, the pretreatment with the hyperosmotic agent would extract water from the tissue (local dehydration), followed by rapid rehydration upon cessation of the hyperosmotic infusion. This process was expected to improve the transition of the intra-arterially administered drug from the vascular compartment to the parenchymal tissues, thereby increasing drug accumulation in the targeted areas.

A further data set has as its system brain. Conditions: mouse, in vivo. An excerpt: In experiment 2, IA injections of antibodies suspended in 0.9% NaCl were comparted to IA injections of antibodies suspended in serum. PET imaging and post-mortem antibody biodistribution were used as outcome measures.
The test system of data set [1] is brain hemispheres. Conditions: mouse, in vivo.
Description: Then, monoclonal antibody (mAb) bevacizumab was conjugated to deferoxamine (DFO) and the conjugate was radiolabeled with zirconium-89 (^89Zr). OBBBO was performed using 25% mannitol or 4% NaCl in 25% mannitol, followed by intraarterial (IA) injection of the radiolabeled mAb and positron-emission tomography (PET) imaging to assess the distribution of the mAb. The percentages of injected dose per cubic centimeter of tissue (% ID/g) and standardized uptake values (SUV) were calculated for selected organs and regions.
Approximately 7.5 MBq (˜202 μCi) of ^89Zr-BVDFO reconstituted in 0.2 mL of saline was infused intraarterially at a speed of 0.15 mL/min and each animal was transferred to the PET/CT scanner. […] Regions of interest (ROIs), including right and left brain hemispheres, heart, lungs, and liver, were demarcated in the axial plane, and standardized uptake values (SUV) were calculated using the Fiji ImageJ PET/CT plugin.
Linear mixed modeling with restricted maximum likelihood (REML) method was performed using ‘Imer’ package, with % ID/g or SUVmean or SUVmax as a dependent variable, organs and BBBO type as fixed effects and mouse ID as a random effect. Estimated marginal means were calculated using ‘emmeans’ package for organ and BBBO interactions, and p-values for pairwise comparisons were extracted.
The test system of data set [2] is brain hemispheres and organs. Description: Ex vivo biodistribution of ^89Zr-BVDFO after OBBBO (Example 1). Set-up: species or system mice. Conditions: mouse. The protocol:
On completion of PET/CT after infusion of ^89Zr-BVDFO, the mice were euthanized and left and right brain hemispheres, heart, lungs, liver, spleen, kidneys, and blood were harvested, weighed using Mettler Toledo […] Balance and radioactivity of each was measured using CRC®[…] Dose Calibrator and Well Counter, Mirion Technologies. To calculate the percentage injected dose per […] of tissue (% ID/g), first, the radioactivity present in the syringe after injection was measured and subtracted from initial measurement before injection to calculate the total injected dose. Then, the percentage of each organ's radioactivity measurement relative to the total injected dose was calculated and divided by the weight of the organ. The biodistribution data shown are mean % ID/g+SE.

Data set [3] concerns brain hemispheres. Set-up: species or system mice. Conditions: mouse. The protocol:
A catheter was placed into the right internal carotid artery (ICA) in 14 male C57BL6 mice for intra-arterial (IA) injections. […] To confirm OBBBO, Gadolinium-enhanced T1 MRI was conducted, and safety was confirmed through subsequent serial MRI over 1-2 weeks.

Regarding “^89Zr-BVDFO: monoclonal antibody bevacizumab (Avastin) conjugated to deferoxamine (DFO) and radiolabeled with zirconium-89”, in the data set with head and neck region, the “antibody uptake in the head and neck region, IA compared to IV” value is recorded as “significantly higher”. In the data set with brain, the “CNS penetration, antibodies suspended in 0.9% NaCl vs suspended in serum” value is “much higher”. In addition, the “antibody penetration to the brain, IA vs IV” value with brain (iv) is listed as “much higher”. Besides, the “accumulation of radioactivity in the ipsilateral hemisphere” value in the data set on brain hemispheres [1] is “substantial accumulation”. The “uptake in the blood, lungs, spleen, liver, and kidneys” value in data set [2] is reported as “high uptake”. Further, the “ex vivo biodistribution, accumulation in the ipsilateral hemisphere” value with brain hemispheres [3] is reported as “confirmed by ex vivo biodistribution”. The “standardized uptake values (SUV), accumulation in the ipsilateral hemisphere” value with brain hemispheres [3] (in vivo) is recorded as “substantial accumulation”.
